In US20260001914A1, “MACROCYCLIC PEPTIDES TARGETING KRAS” (Merck Sharp & Dohme LLC, priority 2022, published 2026):
pEC50: −log10 of the molar value. *1 amine or outer side, *2 acyl side, *3 side chain or, on linkers, in order; H or OH if unused. Where a SMILES comes first, the peptide text is derived from it. Bridges are numbered along the chain shown (N, C = ends). [ ]: non-standard residue; d: D form. Ala(pyrimidin-5-yl) = N[C@@H](Cc1cncnc1)C(=O)O; X36 = CN([C@@H](Cc1cnn(C)c1)C(=O)[*:2])[*:1]; NMePhe(3-Me) = CN[C@@H](Cc1cccc(C)c1)C(=O)O; X7 = C[C@H](N[*:1])C12CC(C(=O)[*:2])(C1)C2; X3 = CN([C@@H](Cc1cncnc1)C(=O)[*:2])[*:1]; Leu(4,5-dehydro) = C=C(C)C[C@H](N)C(=O)O; X26 = Cn1cc(C[C@H](N[*:1])C(=O)[*:2])cn1; Nle(5,5-F2) = CC(F)(F)CC[C@H](N)C(=O)O; X28 = O=C([C@H](Cc1ncccn1)N[*:1])[*:2]; Ala(cPent) = N[C@@H](CC1CCCC1)C(=O)O; Phe(2-F) = N[C@@H](Cc1ccccc1F)C(=O)O; NMe3Pal = CN[C@@H](Cc1cccnc1)C(=O)O; X1 = O=C(C12CC(CN[*:1])(C1)C2)[*:2]; X17 = O=C([C@H](CCCCF)N[*:1])[*:2]; Ala(cPr) = N[C@@H](CC1CC1)C(=O)O; NMeF = CN[C@@H](Cc1ccccc1)C(=O)O; PhLac = O=C(O)[C@@H](O)Cc1ccccc1; X4 = O=C([C@H](CCCF)N[*:1])[*:2]; 3Pal = N[C@@H](Cc1cccnc1)C(=O)O; Ahp(2) = CCCCC[C@H](N)C(=O)O; Ala(CN) = N#CC[C@H](N)C(=O)O; Cba = N[C@@H](CC1CCC1)C(=O)O; hLeu = CC(C)CC[C@H](N)C(=O)O; αMeC = C[C@](N)(CS)C(=O)O; NMeA = CN[C@@H](C)C(=O)O; Nle = CCCC[C@H](N)C(=O)O

What was measured:
[1] = molecular target: KRAS-G12D in AsPC-1 cells (UniProt P01116); assay: cell-based or functional assay
[2] = molecular target: Biotin-labeled KRAS-G12D protein (UniProt P01116-2 1-169, limits assumed, biotin label (site not stated); loaded with BODIPY-GDP); assay: cell-based or functional assay
[3] = molecular target: phosphorylation levels of ERK1/2 in AsPC-1 (homozygous KRAS-G12D) cells (Homo sapiens, UniProt P01116, G12D); assay: Cellular phospho-ERK assay in AsPC-1 cells (Alpha Screen), assay medium without fetal bovine serum; assay type: cell-based; conditions: phospho-ERK AlphaScreen, 18 h;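 also: signal taken as phospho-ERK over total ERK per well, both detected in one multiplex bead assay, EC50 from four-parameter logistic fit of dose-response curves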

Row | AlphaScreen @18 h, EC50 [1] [µM] | SOS assay EC50 [2] [nM] | Molecule | pEC50 [3]
1 | > 50.9 | 146 | cyclo(F-NMeA-3Pal-cBuA-TyrOMe-Ahp-NMeF-aMeC1-C1Ac) (peptide) | –
2 | 4.18 | 31 | cyclo(FLac-NMeA-PyrimAla-cPrA-3Pal2F-hL-NMeF-amBCP) (peptide) | –
3 | > 50.9 | 69.7 | cyclo(FLac-NMeNvalmid-4F3Pal-Nle-Phe2F-Nle-NMeF-amBCP) isomer 2 (peptide) | –
4 | 0.256 | 6.03 | cyclo(FLac-NMeA-PyrimAla-Nle-Phe2F-Nle-NMePhe3Me-amBCP) (peptide) | –
5 | > 50.9 | 2940 | cyclo(FLac-NMeA-3Pal-Nle-Phe2F-Nle-NMeCha-amBCP) (peptide) | –
6 | > 50.9 | 870 | cyclo(FLac-NMeA-4F3Pal-Nle-2Pal6F-Nle-NMeF-amBCP) (peptide) | –
7 | > 50.9 | 35.1 | cyclo(FLac-NMeA-3Pal-NvaF-Phe2F-Nle-NMe3Pal-amBCP) (peptide) | –
8 | 1.77 | 173 | cyclo(FLac-NMeNvaF2-PyrimAla-cPrA-Phe2F-hL-NMeF-amBCP) (peptide) | –
9 | 13.4 | 33.6 | cyclo(FLac-NMeA-PyrimAla-Nle-Phe2F-Nle-NMe3Pal-amBCP) (peptide) | –
10 | > 50.9 | 375 | cyclo(FLac-NMeS-PyrimAla-Nle-Phe2F-Nle-NMe3Pal-amBCP) (peptide) | –
11 | > 50.9 | 6410 | cyclo(FLac-nMeSMe-3Pal-Nle-Phe2F-Nle-NMe3Pal-amBCP) (peptide) | –
12 | > 50.9 | 62.8 | cyclo(FLac-NMeNvalmid-4CF33Pal-Nle-Phe2F-Nle-NMeF-amBCP) isomer 2 (peptide) | –
13 | 0.734 | 12.2 | cyclo(FLac-NMeA-PyrimAla-Nle-Phe2F-Nle-NMePhe3F-amBCP) (peptide) | –
14 | > 50.9 | 466 | cyclo(FLac-NMeS-3Pal-Nle-Phe2F-Nle-NMe3Pal-amBCP) (peptide) | –
15 | > 50.9 | 224 | cyclo(F-NMeR-3Pal-Nle-TyrOMe-LysN3-NMeF-tamcPr) (peptide) | –
16 | 0.355 | – | cyclo(FLac-NMeA-PyrimAla-cBuA-Phe26F2-hL-NMeF-amBCP) (peptide) | –
17 | 45 | – | cyclo(FLac-NMeA-PyrimAla-cBuA-Phe2F-Nle-NMe3Pal-amBCP) (peptide) | –

Row | AlphaScreen @18 h, EC50 [1] [µM] | SOS assay EC50 [2] [nM] | Molecule | pEC50 [3]
18 | 21 | – | cyclo(F-NMeA-3Pal-Nle-Phe2F-Nle-NMeF-aMeC1-C1Ac) (peptide) | –
19 | – | – | CCCC[C@@H]1NC(=O)[C@H](Cc2ccccc2F)NC(=O)[C@H](CCCF)NC(=O)[C@H](Cc2cccnc2)NC(=O)[C@H](C)N(C)C(=O)[C@H](Cc2ccccc2)OC(=O)C23CC(CNC(=O)[C@H](Cc4cccnc4)N(C)C1=O)(C2)C3 [compound 120, cyclo(FLac-NMeA-3Pal-NvaF-Phe2F-Nle-NMe3Pal-amBCP)] (cyclo([3Pal][X4][Phe(2-F)][Nle][NMe3Pal][X1][PhLac][NMeA])) | < 4.29
20 | – | – | CCCC[C@@H]1NC(=O)[C@H](Cc2cccnc2)NC(=O)[C@H](CC#N)NC(=O)[C@H](Cc2ccccc2)OC(=O)C23CC(CNC(=O)[C@H](Cc4cccnc4)N(C)C(=O)[C@H](CCCC)NC(=O)[C@H](Cc4ccccc4F)NC1=O)(C2)C3 [compound 252, cyclo(FLac-AlaCN-3Pal-Nle-Phe2F-Nle-NMe3Pal-amBCP)] (cyclo([3Pal][Nle][Phe(2-F)][Nle][NMe3Pal][X1][PhLac][Ala(CN)])) | < 4.29
21 | – | – | CCCC[C@@H]1NC(=O)[C@H](Cc2cncnc2)NC(=O)[C@H](C)N(C)C(=O)[C@H](Cc2ccccc2)OC(=O)C23CC(CNC(=O)[C@H](Cc4cccc(C)c4)N(C)C(=O)[C@H](CCCC)NC(=O)[C@H](Cc4ccccc4F)NC1=O)(C2)C3 [compound 172, cyclo(FLac-NMeA-PyrimAla-Nle-Phe2F-Nle-NMePhe3Me-amBCP)] (cyclo([NMeA][Ala(pyrimidin-5-yl)][Nle][Phe(2-F)][Nle][NMePhe(3-Me)][X1][PhLac])) | 6.59
22 | – | – | CCCC[C@@H]1NC(=O)[C@H](Cc2cccnc2)NC(=O)[C@H](C)N(C)C(=O)[C@H](Cc2ccccc2)OC(=O)C23CC(CNC(=O)[C@H](Cc4cnn(C)c4)N(C)C(=O)[C@H](CCCC)NC(=O)[C@H](Cc4ccccc4F)NC1=O)(C2)C3 [compound 403, cyclo(FLac-NMeA-3Pal-Nle-Phe2F-Nle-NMeAla4PyzlMe-amBCP)] (cyclo([3Pal][Nle][Phe(2-F)][Nle][X36][X1][PhLac][NMeA])) | 4.73
23 | – | – | C[C@H]1C(=O)N[C@@H](Cc2cccnc2)C(=O)N[C@@H](CC2CC2)C(=O)N[C@@H](Cc2ccccc2F)C(=O)N[C@@H](CCC(C)(F)F)C(=O)N(C)[C@@H](Cc2ccccc2)C(=O)NCC23CC(C2)(C3)C(=O)O[C@@H](Cc2ccccc2)C(=O)N1C [compound 289, cyclo(FLac-NMeA-3Pal-cPrA-Phe2F-Nle3F2-NMeF-amBCP)] (cyclo([3Pal][Ala(cPr)][Phe(2-F)][Nle(5,5-F2)][NMeF][X1][PhLac][NMeA])) | 5.97
24 | – | – | CC(C)CC[C@@H]1NC(=O)[C@H](Cc2ccccc2F)NC(=O)[C@H](CC2CC2)NC(=O)[C@H](Cc2ncccn2)NC(=O)[C@H](C)N(C)C(=O)[C@H](Cc2ccccc2)OC(=O)C23CC(CNC(=O)[C@H](Cc4ccccc4)N(C)C1=O)(C2)C3 [compound 281, cyclo(FLac-NMeA-2PyrimAla-cPrA-Phe2F-hL-NMeF-amBCP)] (cyclo([Ala(cPr)][Phe(2-F)][hLeu][NMeF][X1][PhLac][NMeA][X28])) | 5.00
25 | – | – | C[C@H]1C(=O)N[C@@H](Cc2cncnc2)C(=O)N[C@@H](CC2CC2)C(=O)N[C@@H](Cc2ccccc2F)C(=O)N[C@@H](CC2CC2)C(=O)N(C)[C@@H](Cc2ccccc2)C(=O)NCC23CC(C2)(C3)C(=O)O[C@@H](Cc2ccccc2)C(=O)N1C [compound 267, cyclo(FLac-NMeA-PyrimAla-cPrA-Phe2F-cPrA-NMeF-amBCP)] (cyclo([Ala(cPr)][NMeF][X1][PhLac][NMeA][Ala(pyrimidin-5-yl)][Ala(cPr)][Phe(2-F)])) | 5.04
26 | – | – | C=C(C)C[C@@H]1NC(=O)[C@H](CC2CC2)NC(=O)[C@H](Cc2cncnc2)NC(=O)[C@H](C)N(C)C(=O)[C@H](Cc2ccccc2)OC(=O)C23CC(CNC(=O)[C@H](Cc4ccccc4)N(C)C(=O)[C@H](CCC(C)C)NC1=O)(C2)C3 [compound 287, cyclo(FLac-NMeA-PyrimAla-cPrA-deHLeu-hL-NMeF-amBCP)] (cyclo([Ala(cPr)][Leu(4,5-dehydro)][hLeu][NMeF][X1][PhLac][NMeA][Ala(pyrimidin-5-yl)])) | 4.77
27 | – | – | CCCCC[C@@H]1NC(=O)[C@H](Cc2ccc(OC)cc2)NC(=O)[C@H](CC2CCC2)NC(=O)[C@H](Cc2cc[nH]c(=O)c2)NC(=O)[C@H](CCCNC(=N)N)NC(=O)[C@H](Cc2ccccc2)NC(=O)CSC[C@@](C)(C(N)=O)NC(=O)[C@H](Cc2ccccc2)N(C)C1=O [compound 368, cyclo(F-R-SCO4Pal-cBuA-TyrOMe-Ahp-NMeF-aMeCl-ClAc)] | < 4.29
28 | – | – | CCCCC[C@@H]1NC(=O)[C@H](Cc2ccc(OC)cc2)NC(=O)[C@H](CC2CCC2)NC(=O)[C@H](Cc2cccnc2)NC(=O)[C@H](C)N(C)C(=O)[C@H](Cc2ccccc2)NC(=O)CSC[C@@](C)(C(N)=O)NC(=O)[C@H](Cc2ccccc2)N(C)C1=O [compound 158, cyclo(F-NMeA-3Pal-cBuA-TyrOMe-Ahp-NMeF-aMeCl-ClAc)] ({CH2CO}-F[NMeA][3Pal][Cba]Y(Me)[Ahp(2)][NMeF][αMeC]-NH2; thioether N-8) | < 4.29
29 | – | – | CCCC[C@@H]1NC(=O)[C@H](Cc2ccccc2F)NC(=O)[C@H](CCCCF)NC(=O)[C@H](Cc2cncnc2)NC(=O)[C@H](C)N(C)C(=O)[C@H](Cc2ccccc2)OC(=O)C23CC(CNC(=O)[C@H](Cc4ccccc4)N(C)C1=O)(C2)C3 [compound 130, cyclo(FLac-NMeA-PyrimAla-NleF-Phe2F-Nle-NMeF-amBCP)] (cyclo([NMeA][Ala(pyrimidin-5-yl)][X17][Phe(2-F)][Nle][NMeF][X1][PhLac])) | 5.69
30 | – | – | CCCC[C@@H]1NC(=O)[C@H](Cc2cnn(C)c2)NC(=O)[C@H](C)N(C)C(=O)[C@H](Cc2ccccc2)OC(=O)C23CC(CNC(=O)[C@H](Cc4cccnc4)N(C)C(=O)[C@H](CCCC)NC(=O)[C@H](Cc4ccccc4F)NC1=O)(C2)C3 [compound 400, cyclo(FLac-NMeA-Ala4PyzlMe-Nle-Phe2F-Nle-NMe3Pal-amBCP)] (cyclo([NMe3Pal][X1][PhLac][NMeA][X26][Nle][Phe(2-F)][Nle])) | 4.50
31 | – | – | CC(C)CC[C@@H]1NC(=O)[C@H](Cc2ccccc2F)NC(=O)[C@H](CC2CCCC2)NC(=O)[C@H](Cc2cncnc2)NC(=O)[C@H](C)N(C)C(=O)[C@H](Cc2ccccc2)OC(=O)C23CC(CNC(=O)[C@H](Cc4cncnc4)N(C)C1=O)(C2)C3 [compound 335, cyclo(FLac-NMeA-PyrimAla-cPeA-Phe2F-hL-NMeAlaPyrim-amBCP)] (cyclo([Ala(cPent)][Phe(2-F)][hLeu][X3][X1][PhLac][NMeA][Ala(pyrimidin-5-yl)])) | 5.28
32 | – | – | CCCC[C@@H]1NC(=O)[C@H](Cc2cncnc2)NC(=O)[C@H](CCCn2ccnc2)N(C)C(=O)[C@H](Cc2ccccc2)OC(=O)C23CC(CNC(=O)[C@H](Cc4ccccc4)N(C)C(=O)[C@H](CCCC)NC(=O)[C@H](Cc4ccccc4F)NC1=O)(C2)C3 (single isomer, unassigned) [compound 223, cyclo(FLac-NMeNvalmid-PyrimAla-Nle-Phe2F-Nle-NMeF-amBCP)] | 4.96
33 | – | – | CCCC[C@@H]1NC(=O)[C@H](Cc2cncnc2)NC(=O)[C@H](C)N(C)C(=O)[C@H](Cc2ccccc2)OC(=O)C23CC(C2)(C3)[C@H](C)NC(=O)[C@H](Cc2cccnc2)N(C)C(=O)[C@H](CCCC)NC(=O)[C@H](Cc2ccccc2F)NC1=O [compound 121, cyclo(FLac-NMeA-PyrimAla-Nle-Phe2F-Nle-NMe3Pal-SMeamBCP)] (cyclo([NMe3Pal][X7][PhLac][NMeA][Ala(pyrimidin-5-yl)][Nle][Phe(2-F)][Nle])) | 4.63
